The target of experiment [1] is T1, Isopeptide(3)_Isopeptide(1)_Isopeptide(2) domains-IGSF8 VLM fusion protein (Homo sapiens (IGSF8 portion)).
T1 construct: Flag-tagged fusion of three isopeptide domains and IGSF8; also called Tricatcher-1-IGSF8; Tricatcher-1-IGSF8 fusion protein
In words: Cy3 fluorescence on SDS-PAGE, conjugate incubated with modified EVs. The procedure:
3 μL 500 mM DTT. Samples are mixed, vortexed briefly, spun and heated to 95° C. for 5 min before loading 15 μL per well of NuPAGE® Bis-Tris precast gel. Gel is run at 125V for 1 hr using 1×2-(N-morpholino)ethanesulfonic acid (MES) buffer, following gel manufacturer recommendation, with the loading dye front permitted to run off the gel in order to better separate high molecular weight bands. Seeblue Plus 2 Pre-stained Standard is used as molecular weight standard to follow the course of the electrophoresis and well as a reference for the determining the apparent molecular weight of the targeting moiety-VLM conjugate, in particular, the 5′-IsoPepTag1-ASO-Tricatcher-1-IGSF8 and 3′-IsoPepTag1-ASO-Tricatcher-1-IGSF8 conjugates.

Experiment [2] addresses T2, Isopeptide(1)_Isopeptide(2) domains-IGSF VLM fusion protein (Homo sapiens (IGSF8 portion)).
T2 construct: also called Di; DiCatcher-IGSF8
In words: Capillary electrophoresis-Western blot, anti-S-tag, peptide incubated 3 h at RT with modified EVs (FIG. 13). The procedure:
(§1) EVs were harvested and purified from producer cells transfected with each of the indicated recombinant isopeptide domain-containing proteins as described above in Example 11. EVs denoted as “Un” were harvested and purified in parallel from untransfected cells. Two additional GPC3 affinity peptide-Isopeptide Tag fusion peptides, namely to either Isopeptide-1 tag or Isopeptide-3 tag, are tested for the ability form a covalent bond (i.e., isopeptide bond) with the IGSF8 fusion proteins comprising IGSF8 as a VLM and an Isopeptide-2 domain (SEQ ID NO: 200 from expression vector in FIG. 2), Isopeptide-1 and Isopeptide-2 domains (SEQ ID NO: 202 from expression vector in FIG. 3) or Isopeptide-1, Isopeptide-2 and Isopeptide-3 domains (SEQ ID NO: 204 from expression vector in FIG. 4; also called Tricatcher-1-IGSF8 fusion protein), indicated as “Iso-2,” “Di” and “Tri,” respectively, for the Isopeptide domain-VLM status (see FIG. 13). GPC3 affinity peptide (PEPN)-Isopeptide-1 Tag fusion peptide and GPC3 affinity peptide-Isopeptide-3 Tag fusion peptide additionally have an S-peptide epitope tag (S-tag) and V5 epitope tag, respectively; while the IGSF fusion proteins all have a Flag epitope tag. […]
(In general: Immunoblotting shows a protein as a band on a membrane.)

The target of experiment [3] is T1, Isopeptide(3)_Isopeptide(1)_Isopeptide(2 …). The experiment is described as above. On the procedure: as §1
Experiment [4] deals with T2, Isopeptide(1)_Isopeptide(2) …. Put plainly: Capillary electrophoresis-Western blot (Jess), anti-myc, peptide incubated with modified EVs. On the procedure:
(§2) for a total volume of 50 μL. […] Samples are mixed by repeated pipetting. The microtiter plate is covered, spun at 50×g for 1 min and incubated at RT with shaking on an orbital shaker for 3 hrs. Reaction is terminated by adding 12.5 μL of 5× termination buffer (5% SDS, 300 mM Tris-HCl (pH 6.8)), mixing and transferring to 1.5-mL microfuge tube, and heating the tube to 95° C., 5 min. Samples are analyzed on a combined automated capillary electrophoresis and Western blot system (Jess™ Simple Western system) according to the manufacturer ProteinSimple® (San Jose, CA), using anti-myc or anti-FLAG antibody as a primary antibody followed by a goat anti-mouse secondary antibody-conjugated to horseradish peroxidase for chemiluminescent detection.

Experiment [5] deals with T1, Isopeptide(3)_Isopeptide(1)_Isopeptide(2 …). Described as above. The procedure: as §2
The target of experiment [6] is T3, Isopeptide(2) domain-IGSF8 VLM fusion protein (Homo sapiens (IGSF8 portion)).
T3 construct: also called Iso-2; isopeptide(2)-IGSF8
T3 chain: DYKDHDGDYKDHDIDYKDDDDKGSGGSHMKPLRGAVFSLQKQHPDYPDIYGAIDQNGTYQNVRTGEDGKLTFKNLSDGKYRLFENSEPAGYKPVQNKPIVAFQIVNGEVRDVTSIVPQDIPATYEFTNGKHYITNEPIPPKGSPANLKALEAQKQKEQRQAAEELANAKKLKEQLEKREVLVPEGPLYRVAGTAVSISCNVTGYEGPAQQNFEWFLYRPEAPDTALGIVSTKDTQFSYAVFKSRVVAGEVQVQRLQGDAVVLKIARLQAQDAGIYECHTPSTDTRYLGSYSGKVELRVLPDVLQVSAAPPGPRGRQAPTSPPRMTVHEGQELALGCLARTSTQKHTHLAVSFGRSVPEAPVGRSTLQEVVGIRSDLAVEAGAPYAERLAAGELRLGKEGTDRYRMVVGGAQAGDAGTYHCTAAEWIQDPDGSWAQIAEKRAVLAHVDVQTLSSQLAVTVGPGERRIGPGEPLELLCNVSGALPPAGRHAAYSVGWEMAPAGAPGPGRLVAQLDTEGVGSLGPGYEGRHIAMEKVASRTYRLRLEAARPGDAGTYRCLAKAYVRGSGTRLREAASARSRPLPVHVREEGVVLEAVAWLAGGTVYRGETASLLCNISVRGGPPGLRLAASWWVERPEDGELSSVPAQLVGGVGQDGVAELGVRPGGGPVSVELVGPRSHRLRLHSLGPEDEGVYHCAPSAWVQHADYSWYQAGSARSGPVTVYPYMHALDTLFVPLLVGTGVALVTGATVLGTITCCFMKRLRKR
The experiment is described as above. The procedure:
as §2

Experiment [7] concerns the target T3, Isopeptide(2) domain-IGSF8 VLM fusion …. Put plainly: Capillary electrophoresis-Western blot (Jess), anti-myc, 50 µM peptide, 3 h at RT with modified EVs. On the procedure: as §2
Experiment [8] concerns the target T1, Isopeptide(3)_Isopeptide(1)_Isopeptide(2 …). Put plainly: Capillary electrophoresis-Western blot, anti-V5, peptide incubated 3 h at RT with modified EVs (FIG. 13). On the procedure:
as §1

The values below come from patent publication US20240294585A1 (MANTRA BIO, published 2024).

B1: 5′-IsoPepTag1-ASO (peptide)
peptide: AHIVMVDAYKPTKC
modifications: C-terminal Cys joined by click chemistry to the 5′ end of the antisense oligonucleotide TGC GCT CCT GGA CGT AGC C, which carries Cy3 at its 3′ end
notes: Peptide-oligonucleotide conjugate; also called 5′-IsoPep1Tag-ASO; Cy3-labeled IsoPep1Tag-ASO conjugate
Turning to B1, the binding result in experiment [1] is “binds”.

B2: S-tag labeled Isopeptide(1) tag fusion peptide, SEQ ID NO: 238 (peptide)
peptide: AHIVMVDAYKPTKSGGGGSGGGGKETAAAKFERQHMDSTHVSPNQGGLPS
notes: Order is isopeptide-1 tag, linker, S-tag, PEPN; also called C-terminal PEPN + Isopeptide(1) tag
On to B2, for which the binding result in experiment [2] and in experiment [3] was “binds” throughout.

B3: 3′-IsoPepTag1-ASO (peptide)
peptide: CAHIVMVDAYKPTK
modifications: N-terminal Cys joined by click chemistry to the 3′ end of the antisense oligonucleotide TGC GCT CCT GGA CGT AGC C, which carries Cy3 at its 5′ end
notes: Peptide-oligonucleotide conjugate; also called 3′-IsoPep1Tag-ASO; C-IsoPep1Tag-ASO
B3: the binding result in experiment [1] is “binds”.

B4: C-IsoPep2Tag-PEPN (peptide)
peptide: THVSPNQGGLPSSGGGGSGGGGEQKLISEEDLKLGDIEFIKVNK
notes: also called Isopeptide-2 tag-PEPN fusion peptide (tag at C-terminus); N-terminal PEPN + Isopeptide(2) tag
Turning to B4, the binding result in experiment [4], in experiment [5] and in experiment [6] was “binds” throughout.

B5: N-IsoPep2Tag-PEPN (peptide)
peptide: KLGDIEFIKVNKSGGGGSGGGGEQKLISEEDLTHVSPNQGGLPS
notes: also called Isopeptide-2 tag-PEPN fusion peptide (tag at N-terminus); C-terminal PEPN + Isopeptide(2) tag
Regarding B5, the binding result in experiment [4], in experiment [5] and in experiment [7] was “binds” throughout.

B6: V5-epitope tagged Isopeptide(3) tag fusion peptide, SEQ ID NO: 246 (peptide)
peptide: DPIVMIDNDKPITSGGGGSGGGGGKPIPNPLLGLDSTTHVSPNQGGLPS
notes: also called C-terminal PEPN + Isopeptide(3) tag
With B6, in experiment [8], the binding result was “binds”.

B7: V5-epitope tagged Isopeptide(3) tag fusion peptide, SEQ ID NO: 244 (peptide)
peptide: THVSPNQGGLPSSGGGGSGGGGGKPIPNPLLGLDSTDPIVMIDNDKPIT
notes: also called N-terminal PEPN + Isopeptide(3) tag
With B7, the binding result in experiment [8] is “binds”.
